T1: transcobalamin receptor (TCblR) purified from human placenta (human, UniProt Q9NPF0 32-282)
T1 construct: also called TCR; purified TCblR
T1 sequence: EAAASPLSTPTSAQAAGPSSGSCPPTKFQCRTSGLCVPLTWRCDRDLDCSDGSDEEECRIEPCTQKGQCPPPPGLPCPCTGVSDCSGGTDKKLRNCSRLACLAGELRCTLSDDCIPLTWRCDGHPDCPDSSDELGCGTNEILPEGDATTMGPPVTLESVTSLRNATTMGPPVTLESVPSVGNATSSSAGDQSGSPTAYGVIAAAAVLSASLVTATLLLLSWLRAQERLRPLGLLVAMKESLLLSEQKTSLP

T2: recombinant extracellular fragment of TCblR produced in HEK 293 cells (human, UniProt Q9NPF0 32-247)
T2 construct: Highly glycosylated; also called EXC fragment of TCblR; recombinant TCblR extracellular domain
T2 sequence: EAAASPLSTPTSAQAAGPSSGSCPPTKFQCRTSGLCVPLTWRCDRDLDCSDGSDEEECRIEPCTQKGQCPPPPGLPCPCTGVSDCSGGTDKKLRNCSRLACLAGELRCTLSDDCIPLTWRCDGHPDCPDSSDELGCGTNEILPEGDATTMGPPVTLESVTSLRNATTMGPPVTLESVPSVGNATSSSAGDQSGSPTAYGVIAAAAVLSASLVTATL

B1: holo-transcobalamin (recombinant human TC saturated with cobalamin) (ligand, UniProt P20062 19-427, looked up)
chain: EMCEIPEMDSHLVEKLGQHLLPWMDRLSLEHLNPSIYVGLRLSSLQAGTKEDLYLHSLKLGYQQCLLGSAFSEDDGDCQGKPSMGQLALYLLALRANCEFVRGHKGDRLVSQLKWFLEDEKRAIGHDHKGHPHTSYYQYGLGILALCLHQKRVHDSVVDKLLYAVEPFHQGHHSVDTAAMAGLAFTCLKRSNFNPGRRQRITMAIRTVREEILKAQTPEGHFGNVYSTPLALQFLMTSPMRGAELGTACLKARVALLASLQDGAFQNALMISQLLPVLNHKTYIDLIFPDCLAPRVMLEPAAETIPQTQEIISVTLQVLSLLPPYRQSISVLAGSTVEDVLKKAHELGGFTYETQASLSGPYLTSVMGKAAGEREFWQLLRDPNTPLLQGIADYRPKDGETIELRLVSW
notes: also called TC-Cbl; holo TC
B2: recombinant extracellular (EXC) domain of TCblR produced in NSO myeloma cells, cleaved from the Fc fusion protein (receptor)
chain: SPLSTPTSAQAAGPSSGSCPPTKFQCRTSGLCVPLTWRCDRDLDCSDGSDEEECRIEPCTQKGQCPPPPGLPCPCTGVSDCSGGTDKKLRNCSRLACLAGELRCTLSDDCIPLTWRCDGHPDCPDSSDELGCGTNEILPEGDATTMGPPVTLESVTSLRNATTMGPPVTLESVPSVGNATSSSAGDQSGSPTAY
notes: Fully glycosylated; also called EXC fragment; EXC-TCblR; not shown: some amino acids of the original Fc fusion protein remained in the cleaved fragment; they are not specified

Key:
[1] = molecular target: T1, transcobalamin receptor (TCblR) …; test: radiolabeled Cbl-TC binding to purified TCblR competed by unlabeled holo-TC or apo-TC (FIG. 12)
[2] = molecular target: T2, recombinant extracellular fragment of …; test: not described; extracellular fragment expressed in HEK 293 cells
[3] = molecular target: B1; test: binding studies with the recombinant extracellular domain

fold difference in affinity (holo TC against apo TC) [1] [fold]	fold higher affinity (holo-TC against the apo protein) [2] [fold]	binding result [3]	Binder
28	28		B1
		binds	B2

Reference: patent US8524454 (RESEARCH FOUNDATION OF STATE UNIVERSITY OF NEW YORK, dated 2013)
